# Assay results taken from the Human Domainome abundance scans (Beltran et al. 2025).
# ± gives the uncertainty stated by the source.
# Assay: abundance fitness (aPCA) (normalised: wild type 0, dead -1); higher = more abundant; growth selection in yeast, the domain comes from the species named
# Conditions: Homo sapiens
row,Substance,abundance fitness
1,"NEDD4-like E3 ubiquitin-protein ligase WWP2 H465K, O00308",-0.216 ± 0.064
2,"NEDD4-like E3 ubiquitin-protein ligase WWP2 H465L, O00308",-0.315 ± 0.045
3,"NEDD4-like E3 ubiquitin-protein ligase WWP2 H465M, O00308",-0.357 ± 0.072
4,"NEDD4-like E3 ubiquitin-protein ligase WWP2 H465N, O00308",-0.208 ± 0.086
5,"NEDD4-like E3 ubiquitin-protein ligase WWP2 H465P, O00308",-0.556 ± 0.088
6,"NEDD4-like E3 ubiquitin-protein ligase WWP2 H465Q, O00308",-0.332 ± 0.042
7,"NEDD4-like E3 ubiquitin-protein ligase WWP2 H465R, O00308",-0.278 ± 0.036
8,"NEDD4-like E3 ubiquitin-protein ligase WWP2 H465S, O00308",-0.247 ± 0.034
9,"NEDD4-like E3 ubiquitin-protein ligase WWP2 H465T, O00308",-0.292 ± 0.061
10,"NEDD4-like E3 ubiquitin-protein ligase WWP2 H465V, O00308",-0.357 ± 0.05
11,"NEDD4-like E3 ubiquitin-protein ligase WWP2 H465W, O00308",-0.422 ± 0.042
12,"NEDD4-like E3 ubiquitin-protein ligase WWP2 H465Y, O00308",-0.386 ± 0.064
13,"NEDD4-like E3 ubiquitin-protein ligase WWP2 I441A, O00308",-0.113 ± 0.053
14,"NEDD4-like E3 ubiquitin-protein ligase WWP2 I441C, O00308",-0.166 ± 0.078
15,"NEDD4-like E3 ubiquitin-protein ligase WWP2 I441D, O00308",-0.419 ± 0.14
16,"NEDD4-like E3 ubiquitin-protein ligase WWP2 I441F, O00308",-0.13 ± 0.059
17,"NEDD4-like E3 ubiquitin-protein ligase WWP2 I441H, O00308",-0.204 ± 0.065
18,"NEDD4-like E3 ubiquitin-protein ligase WWP2 I441K, O00308",0.052 ± 0.04
19,"NEDD4-like E3 ubiquitin-protein ligase WWP2 I441L, O00308",-0.198 ± 0.054
20,"NEDD4-like E3 ubiquitin-protein ligase WWP2 I441N, O00308",0.137 ± 0.071
21,"NEDD4-like E3 ubiquitin-protein ligase WWP2 I441P, O00308",-0.503 ± 0.083
22,"NEDD4-like E3 ubiquitin-protein ligase WWP2 I441Q, O00308",-0.035 ± 0.068

row,Substance,abundance fitness
1,"NEDD4-like E3 ubiquitin-protein ligase WWP2 I441S, O00308",-0.123 ± 0.044
2,"NEDD4-like E3 ubiquitin-protein ligase WWP2 I441T, O00308",0.009 ± 0.04
3,"NEDD4-like E3 ubiquitin-protein ligase WWP2 I441V, O00308",-0.14 ± 0.048
4,"NEDD4-like E3 ubiquitin-protein ligase WWP2 I441W, O00308",-0.297 ± 0.067
5,"NEDD4-like E3 ubiquitin-protein ligase WWP2 I441Y, O00308",-0.33 ± 0.11
6,"NEDD4-like E3 ubiquitin-protein ligase WWP2 K453A, O00308",0.037 ± 0.046
7,"NEDD4-like E3 ubiquitin-protein ligase WWP2 K453C, O00308",-0.226 ± 0.079
8,"NEDD4-like E3 ubiquitin-protein ligase WWP2 K453D, O00308",-0.029 ± 0.067
9,"NEDD4-like E3 ubiquitin-protein ligase WWP2 K453E, O00308",-0.23 ± 0.058
10,"NEDD4-like E3 ubiquitin-protein ligase WWP2 K453F, O00308",-0.006 ± 0.075
11,"NEDD4-like E3 ubiquitin-protein ligase WWP2 K453G, O00308",-0.328 ± 0.052
12,"NEDD4-like E3 ubiquitin-protein ligase WWP2 K453H, O00308",-0.137 ± 0.047
13,"NEDD4-like E3 ubiquitin-protein ligase WWP2 K453I, O00308",-0.167 ± 0.053
14,"NEDD4-like E3 ubiquitin-protein ligase WWP2 K453L, O00308",0.034 ± 0.038
15,"NEDD4-like E3 ubiquitin-protein ligase WWP2 K453M, O00308",-0.006 ± 0.05
16,"NEDD4-like E3 ubiquitin-protein ligase WWP2 K453N, O00308",-0.316 ± 0.063
17,"NEDD4-like E3 ubiquitin-protein ligase WWP2 K453P, O00308",-1.01 ± 0.12
18,"NEDD4-like E3 ubiquitin-protein ligase WWP2 K453R, O00308",-0.043 ± 0.045
19,"NEDD4-like E3 ubiquitin-protein ligase WWP2 K453S, O00308",-0.183 ± 0.042
20,"NEDD4-like E3 ubiquitin-protein ligase WWP2 K453T, O00308",-0.128 ± 0.056
21,"NEDD4-like E3 ubiquitin-protein ligase WWP2 K453V, O00308",-0.063 ± 0.05
22,"NEDD4-like E3 ubiquitin-protein ligase WWP2 K453W, O00308",-0.013 ± 0.059

row,Substance,abundance fitness
1,"NEDD4-like E3 ubiquitin-protein ligase WWP2 K453Y, O00308",-0.153 ± 0.042
2,"NEDD4-like E3 ubiquitin-protein ligase WWP2 K473A, O00308",-0.111 ± 0.045
3,"NEDD4-like E3 ubiquitin-protein ligase WWP2 K473C, O00308",-0.003 ± 0.066
4,"NEDD4-like E3 ubiquitin-protein ligase WWP2 K473E, O00308",-0.059 ± 0.035
5,"NEDD4-like E3 ubiquitin-protein ligase WWP2 K473F, O00308",0.102 ± 0.082
6,"NEDD4-like E3 ubiquitin-protein ligase WWP2 K473H, O00308",-0.1 ± 0.055
7,"NEDD4-like E3 ubiquitin-protein ligase WWP2 K473I, O00308",0.028 ± 0.07
8,"NEDD4-like E3 ubiquitin-protein ligase WWP2 K473L, O00308",-0.165 ± 0.058
9,"NEDD4-like E3 ubiquitin-protein ligase WWP2 K473M, O00308",0.093 ± 0.08
10,"NEDD4-like E3 ubiquitin-protein ligase WWP2 K473N, O00308",-0.402 ± 0.095
11,"NEDD4-like E3 ubiquitin-protein ligase WWP2 K473P, O00308",-1.11 ± 0.12
12,"NEDD4-like E3 ubiquitin-protein ligase WWP2 K473Q, O00308",-0.091 ± 0.082
13,"NEDD4-like E3 ubiquitin-protein ligase WWP2 K473R, O00308",-0.081 ± 0.055
14,"NEDD4-like E3 ubiquitin-protein ligase WWP2 K473S, O00308",-0.128 ± 0.055
15,"NEDD4-like E3 ubiquitin-protein ligase WWP2 K473T, O00308",-0.097 ± 0.066
16,"NEDD4-like E3 ubiquitin-protein ligase WWP2 K473V, O00308",0.112 ± 0.041
17,"NEDD4-like E3 ubiquitin-protein ligase WWP2 K473W, O00308",-0.026 ± 0.075
18,"NEDD4-like E3 ubiquitin-protein ligase WWP2 K473Y, O00308",0.087 ± 0.071
19,"NEDD4-like E3 ubiquitin-protein ligase WWP2 K484A, O00308",-0.073 ± 0.058
20,"NEDD4-like E3 ubiquitin-protein ligase WWP2 K484C, O00308",-0.033 ± 0.055
21,"NEDD4-like E3 ubiquitin-protein ligase WWP2 K484D, O00308",-0.028 ± 0.073
22,"NEDD4-like E3 ubiquitin-protein ligase WWP2 K484E, O00308",-0.037 ± 0.061

row,Substance,abundance fitness
1,"NEDD4-like E3 ubiquitin-protein ligase WWP2 K484F, O00308",-0.24 ± 0.073
2,"NEDD4-like E3 ubiquitin-protein ligase WWP2 K484H, O00308",-0.192 ± 0.081
3,"NEDD4-like E3 ubiquitin-protein ligase WWP2 K484I, O00308",-0.157 ± 0.064
4,"NEDD4-like E3 ubiquitin-protein ligase WWP2 K484L, O00308",-0.064 ± 0.03
5,"NEDD4-like E3 ubiquitin-protein ligase WWP2 K484M, O00308",0.044 ± 0.058
6,"NEDD4-like E3 ubiquitin-protein ligase WWP2 K484N, O00308",-0.056 ± 0.053
7,"NEDD4-like E3 ubiquitin-protein ligase WWP2 K484P, O00308",-0.05 ± 0.034
8,"NEDD4-like E3 ubiquitin-protein ligase WWP2 K484Q, O00308",-0.025 ± 0.068
9,"NEDD4-like E3 ubiquitin-protein ligase WWP2 K484R, O00308",-0.062 ± 0.038
10,"NEDD4-like E3 ubiquitin-protein ligase WWP2 K484S, O00308",-0.007 ± 0.037
11,"NEDD4-like E3 ubiquitin-protein ligase WWP2 K484T, O00308",-0.025 ± 0.039
12,"NEDD4-like E3 ubiquitin-protein ligase WWP2 K484V, O00308",-0.143 ± 0.046
13,"NEDD4-like E3 ubiquitin-protein ligase WWP2 K484W, O00308",-0.101 ± 0.052
14,"NEDD4-like E3 ubiquitin-protein ligase WWP2 K484Y, O00308",-0.071 ± 0.029
15,"NEDD4-like E3 ubiquitin-protein ligase WWP2 L446A, O00308",-0.4 ± 0.037
16,"NEDD4-like E3 ubiquitin-protein ligase WWP2 L446C, O00308",-0.065 ± 0.054
17,"NEDD4-like E3 ubiquitin-protein ligase WWP2 L446D, O00308",-0.556 ± 0.048
18,"NEDD4-like E3 ubiquitin-protein ligase WWP2 L446E, O00308",-0.576 ± 0.051
19,"NEDD4-like E3 ubiquitin-protein ligase WWP2 L446F, O00308",-0.011 ± 0.07
20,"NEDD4-like E3 ubiquitin-protein ligase WWP2 L446H, O00308",-0.641 ± 0.12
21,"NEDD4-like E3 ubiquitin-protein ligase WWP2 L446I, O00308",-0.214 ± 0.081
22,"NEDD4-like E3 ubiquitin-protein ligase WWP2 L446K, O00308",-0.688 ± 0.094
